From PMC9365803, “Identification of a HTT-specific binding motif in DNAJB1 essential for suppression and disaggregation of HTT” (Nature Communications, 2022)
Like-named read-outs stand apart in the source and are kept apart here. Values belong to the molecule of their own block, whether it stands above or below them.

Legend:
[1] = molecular target: HTTExon1Q48
[2] = molecular target: HTTExon1Q48; remark: listed apart in the source
[3] = molecular target: T1, DNAJB1^wt (human, UniProt P25685 1-340); assay: cross-linking; XL-MS: HTTExon1Q23/48 incubated with Hsc70, DNAJB1 and Apg2 in the presence of ATP; 5–10 μM total protein, 0.5–1 mM SDA, 30 min at room temperature, UV photoactivation, SDS-PAGE, in-gel digestion with elastase, LC/MS; settings: both partners purified
T1 construct: DNAJB1 (human Hsp40), class B J-domain protein; primers M1/S1 start at the start codon and the stop codon follows residue 340 (primers E, T1); also called wt DNAJB1; Hsp40; source: E. coli BL21-CodonPlus (DE3)-RIPL, purified (Ni-NTA; His-Smt3 tag cleaved with His-Ulp1); not shown: 6His-Smt3, N-terminal, cleaved

[4] = molecular target: the molecule itself; assay: FRET or BRET; fibrilization assay: equimolar GST-HTTExon1Q48-CyPet and GST-HTTExon1Q48-YPet, 0.75 µM in all; 30 mM HEPES pH 7.4, 150 mM NaCl, 5 mM MgCl2, 1 mM DTT, 5 mM ATP with regenerating system; without chaperones; FRET rises on aggregation
[5] = molecular target: T1, DNAJB1^wt; assay: co-sedimentation; HTT fibril-binding assay: 2 µM HTTExon1Q48 aggregated 4.5 h at 20 °C; DNAJB1 variant added at 1 µM, 1 h at RT; sedimented at 20.000 rpm 30 min 4 °C; pellet analysed by Western blot; settings: both partners purified

T1 sequence (P25685 whole entry): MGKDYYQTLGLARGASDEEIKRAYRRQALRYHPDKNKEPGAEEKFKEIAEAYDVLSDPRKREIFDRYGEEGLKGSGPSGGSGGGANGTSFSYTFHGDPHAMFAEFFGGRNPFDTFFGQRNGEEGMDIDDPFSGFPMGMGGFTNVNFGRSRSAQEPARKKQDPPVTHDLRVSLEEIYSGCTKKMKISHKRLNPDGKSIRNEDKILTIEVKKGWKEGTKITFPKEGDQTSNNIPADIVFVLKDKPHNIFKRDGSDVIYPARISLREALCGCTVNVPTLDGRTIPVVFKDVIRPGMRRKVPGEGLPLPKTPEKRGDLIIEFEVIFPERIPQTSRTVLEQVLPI

- half-life (T1/2) of HTTExon1Q48 fibrilization, FRET assay, with Hsc70, Apg2 and ATP [1]: 10 h
Molecule: DNAJB1^H244F (from UniProt P25685 1-340) (natural protein)

- half-life (T1/2) of HTTExon1Q48 fibrilization, FRET assay, with Hsc70, Apg2 and ATP [1]: 24 h
Molecule: DNAJB1^H244Q (from UniProt P25685 1-340) (natural protein)

- half-life (T1/2) of HTTExon1Q48 fibrilization, FRET assay, with Hsc70, Apg2 and ATP [1]: 17 h
Molecule: DNAJB1^H244R (from UniProt P25685 1-340) (natural protein)

- half-life (T1/2) of HTTExon1Q48 fibrilization, FRET assay, with Hsc70, Apg2 and ATP [2]: 16 h
Molecule: DNAJB1^K242A (from UniProt P25685 1-340) (natural protein)

- binding result [3]: binds
B1: HTTExon1Q48 (domain or fragment)
chain: MATLEKLMKAFESLKSFQQQQQQQQQQQQQQQQQQQQQQQQQQQQQQQQQQQQQQQQQQQQQQQQPPPPPPPPPPPQLPQPPPQAQPLLPQLQPPPPPPPPPPGPAAAEEPLHRP
notes: first exon of huntingtin with an expanded stretch of 48 glutamines; The XL-MS methods say only HTT; the only purification told is that of GST-HTTExon1Q48-CyPet/YPet (pGEX-6P1), so tags in the XL-MS sample are not certain; In the FRET assay two forms (CyPet and YPet) are mixed equimolar; also called GST-HTTExon1Q48-CyPet/YPet; HTTExon1Q48-CyPet/YPet; source: E. coli BL21-CodonPlus (DE3)-RIPL, …
- binding result [4]: binds

- binding result [5]: binds
B2: HTTExon1Q48 fibrils (other)
chain: B1 chain
notes: first exon of huntingtin with 48 glutamines, as amyloid fibrils; Amyloid fibrils of many copies; also called HTT fibrils; preformed HTTExon1Q48 fibrils; not shown: GST, N-terminal, cleaved; CyPet, C-terminal, kept

B3: HTTExon1Q48ΔP2 (domain or fragment)
chain: MATLEKLMKAFESLKSFQQQQQQQQQQQQQQQQQQQQQQQQQQQQQQQQQQQQQQQQQQQQQQQQPPPPPPPPPPPQLPQPPPQAQPLLPQAAEEPLHRP
notes: Used soluble in the FRET assay and as fibrils in the disaggregation assay; also called HTTExon1Q48ΔP2-CyPet/YPet; source: E. coli BL21-CodonPlus (DE3)-RIPL, purified (glutathione sepharose); not shown: CyPet or YPet, C-terminal, kept
- binding result [4]: binds
